Test [1] has as its target Protein G of the commercial protein G-based microplate (UniProt P19909). The test can be described thus: ELISA; sandwich ELISA on commercial protein G-based microplates coated with anti-IFN-α antibody (2 μg/ml); AGP3-biotin 1 μg/ml, 1 hour at room temperature in DMEM/BSA; streptavidin-HRP and ABTS; background absorbance. For orientation: In an ELISA, binding on a coated surface is turned into a signal by an enzyme label.

Test [2] concerns the target 8pG receptor: eight tandemly repeated protein G C2 domains fused to an HA epitope and the immunoglobulin C2-type extracellular-transmembrane-cytosolic domains of mouse B7-1 (mB7) (not stated (streptococcal cDNA) | mouse). The experiment in a line: ELISA; 3.3-biotin (1 μg/ml serially diluted in DMEM/BSA) added to paraformaldehyde-fixed 8pG cell-based microplates, room temperature 1 hour; streptavidin-HRP and ABTS, absorbance 405 nm.

Several values for one entry are separate records, joined by “and”; a condition that tells them apart may be missing. Equal values may be shown once.

Substance “Biotin-conjugated monoclonal mouse anti-PEG IgM antibody AGP3” displayed a background OD 405 in test [1] of 1.29.
In test [2], “Biotin-conjugated monoclonal mouse anti-PEG antibody 3.3 (IgG type)” gave a fold absorbance over the commercial protein G-based microplate, 0.01 ug/mL 3.3-biotin of 6.8 fold; a fold absorbance over the commercial protein G-based microplate, 0.04 ug/mL 3.3-biotin of 6.2 fold; a fold absorbance over the commercial protein G-based microplate, 0.11 ug/mL 3.3-biotin of 2.7 fold; a fold absorbance over the commercial protein G-based microplate, 1 ug/mL 3.3-biotin of 1.2 fold. Besides, in test [2], the fold absorbance over the traditional polystyrene-based microplate, 0.01 ug/mL 3.3-biotin came to 23 fold; the fold absorbance over the traditional polystyrene-based microplate, 0.04 ug/mL 3.3-biotin was determined as 12.4 fold; the fold absorbance over the traditional polystyrene-based microplate, 0.11 ug/mL 3.3-biotin was 8.8 fold; the fold absorbance over the traditional polystyrene-based microplate, 1 ug/mL 3.3-biotin was determined as 1.5 fold. The other in test [2] was 1.6 fold and 4.3 fold.

Source of the values: PMC6294806.
